Source: patent publication US20110104713A1, “PRODUCTS AND PROCESSES FOR MODULATING PEPTIDE-PEPTIDE BINDING DOMAIN INTERACTIONS” (priority 2002, published 2011)
Values belong to the binder of their own block, whether it stands above or below them. Non-standard residues stand in square brackets, D forms with d. No end group written: not given here. pT = C[C@@H](OP(=O)(O)O)[C@H](N)C(=O)O

Experiments:
[1] = target: degenerate peptide library MAXXXXSpTXXXXAKKK (SEQ ID NO: 48); assay: GST-PBD on glutathione beads, oriented peptide library screening
[2] = target: degenerate peptide library MAXXXXpTPXXXXAKKK (SEQ ID NO: 46); assay: as above
[3] = target: GST-Plk1 (full-length), prepared in SF9 cells (human)
[4] = target: T1, BRCTtide-7pS, GAAYDI-pS-… (Artificial Sequence); assay: isothermal titration calorimetry, peptide injected into GST-PTIP BRCT domains
T1 sequence (peptide, phosphoserine (pS) at position 7): GAAYDISQVFPFAKKK

[5] = target: T2, BRCTtide-7pT, GAAYDI-pT-… (Artificial Sequence); assay: as above
T2 sequence (peptide, phosphothreonine (pT) at position 7): GAAYDITQVFPFAKKK

[6] = target: degenerate peptide library GAXXXB(pS/pT)QJXXXAKKK (SEQ ID NO: 62); assay: GST-(BRCT)2 on glutathione beads, soluble degenerate library, Edman sequencing of bound peptides
[7] = target: degenerate peptide library GAXXXXpSXXFXXAYKKK (SEQ ID NO: 59); assay: as above
[8] = target: degenerate peptide library MAXXXXpTXXXXAKKK (SEQ ID NO: 47); assay: as above
[9] = target: degenerate peptide library Met-Ala-X-X-X-X-pSer-X-X-X-X-X-Ala-Lys-Lys-Lys (SEQ ID NO: 58); assay: as above
[10] = target: T1, BRCTtide-7pS, GAAYDI-pS-… (Artificial Sequence); assay: isothermal titration calorimetry, peptide injected into GST-BRCA1 BRCT domains

selectivity ratio, Pro at pThr+1 [1]: 1.4
selectivity ratio, Ser at pThr-1 [2]: 5.3
B1: GST-Cdc5p PBD (Saccharomyces cerevisiae Cdc5p residues 357-705) (protein)
chain: EDIPEEQSLVNFKDCMEKSLLLESMSSDKIQRQKRDYISSIKSSIDKLEEYHQNRPFLPHSLSPGGTKQKYKEVVDIEAQRRLNDLAREARIRRAQQAVLRKELIATSTNVIKSEISLRILASECHLTLNGIVEAEAQYKMGGLPKSRLPKIKHPMIVTKWVDYSNKHGFSYQLSTEDIGVLFNNGTTVLRLADAEEFWYISYDDREGWVASHYLLSEKPRELSRHLEVVDFFAKYMKANLSRVSTFGREEYHKDDVFLRRYTRYKPFVMFELSDGTFQFNFKDHHKMAISDGGKLVTYISPSHESTTYPLVEVLKYGEIPGYPESNFREKLTLIKEGLKQKSTIVTVD

selectivity ratio, Pro at pThr+1 [1]: 1.6
selectivity ratio, Ser at pThr-1 [2]: 3
B2: GST-hPlk3 PBD (human Plk3 residues 335-646) (protein)
chain: TPPNPARSLFAKVTKSLFGRKKKSKNHAQERDEVSGLVSGLMRTSVGHQDARPEAPAASGPAPVSLVETAPEDSSPRGTLASSGDGFEEGLTVATVVESALCALRNCIAFMPPAEQNPAPLAQPEPLVWVSKWVDYSNKFGFGYQLSSRRVAVLFNDGTHMALSANRKTVHYNPTSTKHFSFSVGAVPRALQPQLGILRYFASYMEQHLMKGGDLPSVEEVEVPAPPLLLQWVKTDQALLMLFSDGTVQVNFYGDHTKLILSGWEPLLVTFVARNRSACTYLASHLRQLGCSPDLRQRLRYALRLLRDRSPA

selectivity ratio, Pro at pThr+1 [1]: 1.7
selectivity ratio, Ser at pThr-1 [2]: 7.5
B3: GST-hPlk2 PBD (human Plk2 residues 355-685) (protein)
chain: HLSSPAKNFFKKAAAALFGGKKDKARYIDTHNRVSKEDEDIYKLRHDLKKTSITQQPSKHRTDEELQPPTTTVARSGTPAVENKQQIGDAIRMIVRGTLGSCSSSSECLEDSTMGSVADTVARVLRGCLENMPEADCIPKEQLSTSFQWVTKWVDYSNKYGFGYQLSDHTVGVLFNNGAHMSLLPDKKTVHYYAELGQCSVFPATDAPEQFISQVTVLKYFSHYMEENLMDGGDLPSVTDIRRPRLYLLQWLKSDKALMMLFNDGTFQVNFYHDHTKIIICSQNEEYLLTYINEDRISTTFRLTTLLMSGCSSELKNRMEYALNMLLQRCN

Plk1 kinase activity towards casein (32P incorporation, SDS-PAGE/autoradiography) [3]: 2.6 fold
Binder: MAGPMQS[pT]PLNGAKK [PoloBoxtide-optimal, MAGPMQ-S-pT-P-LNGAKK]

Kd [4]: 280 nM
Kd [5]: 14300 nM
selectivity ratio, Phe at (pSer/pThr)+3 [6]: 7
selectivity ratio, Ile at pSer+5 [7]: 1.9
selectivity ratio, Ile at pThr-1 [8]: 2.1
selectivity ratio, Phe at pSer+3 [9]: 2.3
B4: GST-PTIP tandem BRCT domains (residues 550-757) (protein)
chain: TPELTPFVLFTGFEPVQVQQYIKKLYILGGEVAESAQKCTHLIASKVTRTVKFLTAISVVKHIVTPEWLEECFRCQKFIDEQNYILRDAEAEVLFSFSLEESLKRAHVSPLFKAKYFYITPGICPSLSTMKAIVECAGGKVLSKQPSFRKLMEHKQNSSLSEIILISCENDLHLCREYFARGIDVHNAEFVLTGVLTQTLDYESYKFN

Kd [10]: 400 nM
selectivity ratio, Phe at (pSer/pThr)+3 [6]: 7.5
selectivity ratio, Phe at pSer+1 [7]: 2.1
selectivity ratio, Phe at pThr+3 [8]: 1.9
selectivity ratio, Phe at pSer+3 [9]: 2.4
B5: GST-BRCA1 tandem BRCT domains (residues 1634-1863) (protein)
chain: REKPELTASTERVNKRMSMVVSGLTPEEFMLVYKFARKHHITLTNLITEETTHVVMKTDAEFVCERTLKYFLGIAGGKWVVSYFWVTQSIKERKMLNEHDFEVRGDVVNGRNHQGPKRARESQDRKIFRGLEICCYGPFTNMPTDQLEWMVQLCGASVVKELSSFTLGTGVHPIVVVQPDAWTEDNGFHAIGQMCEAPVVTREWVLDSVALYQCQELDTYLIPQIPHSHY
